Source: patent publication US20260042850A1 (LOCKBODY THERAPEUTICS, published 2026)

Assays:
[1] = target: T1, human C-MET His tagged, monomeric (human, UniProt P08581 25-932); assay: SPR Biacore, IgG captured, monomeric C-MET-His analyte
T1 construct: also called monomeric human C-MET; biotinylated human C-MET-His
Outline: (§1)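 Purified IgG (50 nM) captured via immobilized anti-human CH1 antibody on a CM5 chip; monomeric His-tagged human or cyno C-MET injected as analyte, 2-fold dilutions 100 nM to 6 nM, 300 s dissociation. HBS-EP pH 7.4 running buffer, reference-channel corrected. KD from 1:1 Langmuir global fit.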

[2] = target: T2, cynomolgus monkey C-MET His tag, monomeric (cynomolgus monkey, UniProt A0M8R7 25-932 (Papio anubis entry)); assay: as above
T2 construct: also called monomeric cyno C-MET; cyCMET
T2 sequence (A0M8R7 25-932 S170N/I621T): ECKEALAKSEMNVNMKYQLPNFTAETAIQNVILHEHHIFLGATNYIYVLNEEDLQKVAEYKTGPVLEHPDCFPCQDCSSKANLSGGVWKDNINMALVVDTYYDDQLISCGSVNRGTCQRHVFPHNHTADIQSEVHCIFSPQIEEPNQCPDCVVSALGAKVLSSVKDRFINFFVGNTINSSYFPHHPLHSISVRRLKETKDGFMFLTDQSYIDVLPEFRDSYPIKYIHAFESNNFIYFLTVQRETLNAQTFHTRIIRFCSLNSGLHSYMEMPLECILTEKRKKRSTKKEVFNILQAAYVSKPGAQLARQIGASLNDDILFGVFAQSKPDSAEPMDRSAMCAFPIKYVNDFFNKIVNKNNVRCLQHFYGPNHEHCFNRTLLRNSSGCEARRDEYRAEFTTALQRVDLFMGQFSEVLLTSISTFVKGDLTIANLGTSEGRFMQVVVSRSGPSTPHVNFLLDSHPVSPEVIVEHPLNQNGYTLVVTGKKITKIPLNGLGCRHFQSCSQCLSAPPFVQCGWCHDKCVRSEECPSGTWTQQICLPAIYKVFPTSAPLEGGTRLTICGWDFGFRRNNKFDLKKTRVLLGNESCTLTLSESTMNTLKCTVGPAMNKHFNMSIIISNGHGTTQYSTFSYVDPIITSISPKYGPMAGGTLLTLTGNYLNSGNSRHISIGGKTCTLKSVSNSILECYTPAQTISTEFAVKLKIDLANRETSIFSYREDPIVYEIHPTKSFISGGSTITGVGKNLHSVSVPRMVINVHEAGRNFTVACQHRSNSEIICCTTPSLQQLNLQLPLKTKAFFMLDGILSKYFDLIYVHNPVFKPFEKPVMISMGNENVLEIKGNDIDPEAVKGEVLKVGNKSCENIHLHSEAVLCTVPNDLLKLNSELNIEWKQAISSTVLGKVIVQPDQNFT
Outline: as §1

[3] = target: T3, human C-MET on stably transfected CHO-K1 cells (human, UniProt P08581 25-1390); assay: flow cytometry, C-MET CHO-K1 cells
T3 construct: also called hucMET; human C-MET+ CHO-K1 cells
T3 sequence (P08581 25-1390 limits assumed): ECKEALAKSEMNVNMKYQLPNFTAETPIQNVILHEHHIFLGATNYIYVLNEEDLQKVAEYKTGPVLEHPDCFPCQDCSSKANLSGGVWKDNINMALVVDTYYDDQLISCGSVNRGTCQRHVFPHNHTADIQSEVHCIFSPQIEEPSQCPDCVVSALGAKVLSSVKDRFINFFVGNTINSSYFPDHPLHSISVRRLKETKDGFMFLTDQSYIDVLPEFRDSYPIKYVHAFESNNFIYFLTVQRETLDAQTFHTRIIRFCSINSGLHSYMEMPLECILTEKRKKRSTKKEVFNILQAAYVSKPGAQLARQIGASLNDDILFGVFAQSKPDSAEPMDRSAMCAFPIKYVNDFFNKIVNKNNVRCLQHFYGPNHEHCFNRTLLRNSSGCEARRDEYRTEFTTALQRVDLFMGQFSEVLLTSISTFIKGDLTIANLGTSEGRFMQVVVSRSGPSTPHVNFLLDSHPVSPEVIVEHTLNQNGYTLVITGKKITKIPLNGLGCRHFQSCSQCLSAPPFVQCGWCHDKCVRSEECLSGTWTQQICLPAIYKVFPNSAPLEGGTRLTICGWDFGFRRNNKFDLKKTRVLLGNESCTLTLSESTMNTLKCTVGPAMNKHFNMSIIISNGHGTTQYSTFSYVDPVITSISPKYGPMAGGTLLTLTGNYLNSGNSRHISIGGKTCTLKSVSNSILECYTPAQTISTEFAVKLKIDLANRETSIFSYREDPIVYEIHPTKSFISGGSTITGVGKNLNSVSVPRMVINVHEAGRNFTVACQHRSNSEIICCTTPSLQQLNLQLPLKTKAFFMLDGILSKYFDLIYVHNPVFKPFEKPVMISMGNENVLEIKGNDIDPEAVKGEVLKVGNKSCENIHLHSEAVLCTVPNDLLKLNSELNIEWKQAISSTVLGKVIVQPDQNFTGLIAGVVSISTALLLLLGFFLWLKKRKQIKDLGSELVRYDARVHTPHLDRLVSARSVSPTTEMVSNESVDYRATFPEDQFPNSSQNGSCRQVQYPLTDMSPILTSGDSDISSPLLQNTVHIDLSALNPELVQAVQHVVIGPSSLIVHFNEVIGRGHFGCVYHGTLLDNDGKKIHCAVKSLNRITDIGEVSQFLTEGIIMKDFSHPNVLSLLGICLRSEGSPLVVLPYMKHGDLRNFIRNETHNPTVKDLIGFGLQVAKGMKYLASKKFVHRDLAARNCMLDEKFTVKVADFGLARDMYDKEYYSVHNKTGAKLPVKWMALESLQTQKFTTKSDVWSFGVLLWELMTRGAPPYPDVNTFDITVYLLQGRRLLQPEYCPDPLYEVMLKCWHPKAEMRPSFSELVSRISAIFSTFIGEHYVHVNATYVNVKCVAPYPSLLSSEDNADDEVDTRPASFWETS

[4] = target: T4, cynomolgus monkey C-MET on stably transfected CHO-K1 cells (cynomolgus monkey, UniProt A0M8R7 25-1381 (Papio anubis entry)); assay: flow cytometry, C-MET CHO-K1 cells
T4 construct: also called cycMET; cyno C-MET+ CHO-K1 cells
T4 sequence (A0M8R7 25-1381 S170N/I621T limits assumed): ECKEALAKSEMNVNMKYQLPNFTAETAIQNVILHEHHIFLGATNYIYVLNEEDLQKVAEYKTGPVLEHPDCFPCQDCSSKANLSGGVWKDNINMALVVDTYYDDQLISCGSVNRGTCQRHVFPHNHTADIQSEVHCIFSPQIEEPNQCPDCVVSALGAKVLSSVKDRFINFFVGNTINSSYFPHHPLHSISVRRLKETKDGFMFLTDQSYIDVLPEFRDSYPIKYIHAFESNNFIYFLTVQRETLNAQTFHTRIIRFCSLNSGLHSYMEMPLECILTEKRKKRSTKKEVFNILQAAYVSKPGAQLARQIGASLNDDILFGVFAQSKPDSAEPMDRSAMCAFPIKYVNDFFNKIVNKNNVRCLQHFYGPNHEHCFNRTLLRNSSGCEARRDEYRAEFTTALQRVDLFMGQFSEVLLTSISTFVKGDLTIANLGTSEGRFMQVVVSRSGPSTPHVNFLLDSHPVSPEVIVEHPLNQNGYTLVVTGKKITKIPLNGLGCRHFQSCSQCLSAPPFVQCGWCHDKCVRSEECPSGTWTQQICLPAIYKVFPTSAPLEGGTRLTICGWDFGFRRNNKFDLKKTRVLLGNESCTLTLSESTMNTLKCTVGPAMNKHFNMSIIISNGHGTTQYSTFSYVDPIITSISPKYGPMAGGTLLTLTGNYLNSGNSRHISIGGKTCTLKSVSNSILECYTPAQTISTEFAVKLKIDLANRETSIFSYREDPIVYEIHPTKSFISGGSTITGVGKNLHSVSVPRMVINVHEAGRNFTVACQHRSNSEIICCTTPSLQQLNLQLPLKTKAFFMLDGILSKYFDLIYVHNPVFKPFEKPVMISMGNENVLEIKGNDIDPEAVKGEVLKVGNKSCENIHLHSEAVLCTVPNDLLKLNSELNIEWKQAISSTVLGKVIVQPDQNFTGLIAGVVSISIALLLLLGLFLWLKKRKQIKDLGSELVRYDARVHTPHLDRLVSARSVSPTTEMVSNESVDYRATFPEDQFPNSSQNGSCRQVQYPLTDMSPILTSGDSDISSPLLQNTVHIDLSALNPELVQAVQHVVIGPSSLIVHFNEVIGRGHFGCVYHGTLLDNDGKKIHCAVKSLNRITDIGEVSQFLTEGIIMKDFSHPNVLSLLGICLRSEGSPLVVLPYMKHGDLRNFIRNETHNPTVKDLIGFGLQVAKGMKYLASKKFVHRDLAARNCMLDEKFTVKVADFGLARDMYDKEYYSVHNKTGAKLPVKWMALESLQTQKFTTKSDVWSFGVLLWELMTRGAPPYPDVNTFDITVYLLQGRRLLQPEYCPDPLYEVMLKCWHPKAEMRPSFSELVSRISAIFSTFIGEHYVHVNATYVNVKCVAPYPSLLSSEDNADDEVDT

[5] = target: T1, human C-MET His tagged, monomeric; assay: Alphascreen epitope competition in solution: varied IgG4(S228P) against 224G11 IgG4(S228P) binding to biotinylated human C-MET, CPS
Procedure: FIG. 4. Epitope competition analysis of IgG4(S228P) proteins in Alphascreen. Anti-C-MET IgG4(S228P) clones were applied in an epitope competition assay using Alphascreen technology. In this assay, library-derived and designer IgGs were analysed for their retention of the parental 224G11 epitope by competing for 224G11 IgG4(S228P) binding to human C-MET protein, in solution.
The AlphaScreen assay (Perkin Elmer) was performed in a 25 μl final volume in 384-well white microtiter plates (Greiner). The reaction buffer contained 1×PBS pH 7.3 (Oxoid, Cat. nr. BR0014G) and 0.05% (v/v) Tween® 20 (Sigma, Cat. nr. P9416). Purified IgG samples were titrated in three fold serial dilutions starting at 50 nM final concentration and incubated with biotinylated human C-MET-His (Acrobiosystems) at 1 nM final concentration for 20 minutes at room temperature. The parental IgG and the anti-human IgG4(S228P) Acceptor beads at were added and the mix was incubated for 1 hour at room temperature. Followed by addition of the Streptavidin Donor beads and incubation for 30 minutes at room temperature. The emission of light was measured in the EnVision multilabel plate reader (Perkin Elmer) and analysed using the EnVision manager software. Values were reported as Counts Per Second (CPS) and corrected for crosstalk.

[6] = target: T3, human C-MET on stably transfected …; assay: flow cytometry, C-MET CHO-K1 cells; remark: listed apart in the source
Outline: (§2)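 Purified IgGs titrated three-fold from 500 nM to 0.08 nM on CHO-K1 cells stably expressing C-MET, with wild-type CHO-K1 as control. Detection by FITC-conjugated mouse anti-human IgG; MFI from 10000 cells per sample by flow cytometry.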

[7] = target: T4, cynomolgus monkey C-MET on stably …; assay: flow cytometry, C-MET CHO-K1 cells; remark: listed apart in the source
Outline: as §2

T1 sequence (P08581 25-932): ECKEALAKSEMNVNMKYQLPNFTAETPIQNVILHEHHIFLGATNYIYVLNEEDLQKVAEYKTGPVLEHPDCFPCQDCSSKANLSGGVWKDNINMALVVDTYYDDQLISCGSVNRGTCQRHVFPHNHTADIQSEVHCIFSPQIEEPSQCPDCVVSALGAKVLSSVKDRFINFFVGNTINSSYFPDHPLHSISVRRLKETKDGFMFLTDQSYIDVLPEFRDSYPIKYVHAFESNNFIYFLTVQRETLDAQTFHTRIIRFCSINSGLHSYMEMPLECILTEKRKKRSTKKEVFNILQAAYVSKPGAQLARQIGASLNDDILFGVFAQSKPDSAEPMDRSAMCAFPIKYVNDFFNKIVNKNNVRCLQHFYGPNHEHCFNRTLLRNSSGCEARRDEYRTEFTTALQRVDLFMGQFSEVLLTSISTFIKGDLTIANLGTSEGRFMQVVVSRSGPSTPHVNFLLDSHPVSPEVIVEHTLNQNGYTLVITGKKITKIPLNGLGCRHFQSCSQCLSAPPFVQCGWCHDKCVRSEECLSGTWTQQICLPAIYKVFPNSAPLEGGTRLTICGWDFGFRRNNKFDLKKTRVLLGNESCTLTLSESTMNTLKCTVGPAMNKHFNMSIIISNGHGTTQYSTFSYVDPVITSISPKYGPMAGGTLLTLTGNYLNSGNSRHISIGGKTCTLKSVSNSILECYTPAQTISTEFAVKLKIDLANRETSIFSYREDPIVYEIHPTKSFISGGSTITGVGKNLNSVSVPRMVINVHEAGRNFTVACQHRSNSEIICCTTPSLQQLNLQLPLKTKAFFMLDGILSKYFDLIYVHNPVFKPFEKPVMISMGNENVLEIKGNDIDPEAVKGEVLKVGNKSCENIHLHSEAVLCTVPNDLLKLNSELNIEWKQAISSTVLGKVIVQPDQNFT

B1: 04E10 (antibody, IgG4, V domains shown)
VH: QVQLVQSGAEVKKPGASVKVSCKASGYIFTSYTMHWVRQAPGQGLEWMGWIKPNNGSASYAQKFQGRVTMTRDTSTSTVYMELSSLRSEDTAVYYCARSEITTEEDYWGQGTLVTVSS
VL: EIVLTQSPGTLSLSPGERATLSCRASQSVDSYANSYLHWYQQKPGQAPRLLIYRGSTRESGIPDRFSGSGSGTDFTLTISRLEPEDFAVYYCQQSKSEPLTFGGGTKVEIK
[1]
  Kd: 1.6 nM
  koff: 5e-05 s⁻¹
  kon: 31000 M⁻¹ s⁻¹
[2]
  Kd: 2.2 nM
  koff: 0.00011 s⁻¹
  kon: 49000 M⁻¹ s⁻¹
[3]
  maximum MFI, fold over Isotype IgG4 background: > 10 fold
[4]
  maximum MFI, fold over Isotype IgG4 background: > 10 fold
[5]
  IC50 (read off the curve): ~2 nM
[6]
  EC50: 9.66 nM
[7]
  EC50: 2.94 nM
